The text below walks through data of the DeepSol protein solubility set.

This data set is described as follows: soluble on expression in E. coli; label from the status in PepcDB or PDB records.
Consider “MSRSEFPNSKCLICGSICTAKFHFGGLSCNACASFFRRTVSLNIRYLCKNSNNCITSPGQRTFCKACRYESCVDKAGMKRDFVQQRRSTNATPKYILNSTSGSSNREVVRGFITDSNSHLVTQTDHLRNIDNNEHCKDMKKYSDLLEISHMNLLRFYVKQVEPEKKELKNILQIKSINDLMITCAYDNGSAMESCVHCPGTGKLSQEDVRLLQKSFQFAHTWLDSTWQYSIATDIDESEVSGESENLSQFISHIKSTLGACLANLKLDVYEFAAFKSFCVWSIGAQGATESMKVVAQEHYEAVASALKMYYKTFTSMSDSEIATRIEEISFGRSSDVQMIYDETIKLYNKIGIPKSLFFEGN”, for which the “soluble on expression in E. coli” value is “not soluble”.

In the case of “GMHVYESDVSWIDDRRTEVSVGDHRIEVDSPPEFGGPEGQLYPETLFPSVLASCLLTTFLEFKDRMGINLKSWNSHVTAELGPSPEKGFKFHRIKIHVKIGVNDEDKEKIPRAMQLAEKYCFISRAIRNNVEEIVDYEFV”, the “soluble on expression in E. coli” value is recorded as “soluble”.

On to “MSLHDLLMIDGLQYSNWSQDIFQQMQAGGLSAVHATIAYHENARETLSRLGEWNRRFETWPELIRPVRTASDIRLAHEEGRVGIFFGFQNCSPIEDDIALVEVFRQLGVFVMQLTYNNQSLLASGCYEREDNGISRFGRQVIAEMNRVGMLIDMSHSAERSTLEAIELSSRPVIISHANPASFHAAKRNKSDAVLRGIAESGGLLGFSTYPFHLKGASDCSLESFCDMVARTADLMGVEHIGIGTDLCQAQPLSVLEWMRNGRWSKDKDYGEGSRDNANWPAPLQWFRDSRDLRNIAQGLRARGFAEHDVGNIMGLNWLRLLETATTAQAEGHHHHHH”, for which the “soluble on expression in E. coli” value is given as “soluble”.

In the case of “MGSDKIHHHHHHMLVPMSEGDTSELDHDADHLAEGDERYLLRNKRQIRGLLQQLIDQRAVVTMHVAGRDMAVPTAVLEVDEDDDCVILDGSHNDASNRAIEQAKYLLCYAQLERVNIRFRLETPERLERDIHVAFRATLPDSLYHLQRRESYRLETPITDSPTCTIRQDAASGGNLNLQLRVIDISSGGLAVSLTTGMPLLDPQHTYRDCTLQLPDSAPIALPLTVCSQYKMTLPNGSEGFRVGMQFSDLPRGADETIQRYIFRVDRQRNARKSGVF”, the “soluble on expression in E. coli” value is on record as “not soluble”.

As to “MAHHHHHHMKAGGGLVALLAQTVVAGDVNACCGVLRRVFSETLQEDRRLTALASNAARSVRRRSHHSAGTAPSFATAPAAATKTLSSSASSSSLSSSSALATSSGPDDVVNFARYAQHQRAQAHSFANAAAQAVLRTSFVPPDGVRPLAVAAAGTKGHPTDAEVPQSHRASSAFGAPTDTPIAQRVWKLARSTLSTDSALVKTSSLHVLCHTAQRTGYWEEALHFCEYLPQSPAPLFLSSLLRPDNVNPILQHCATRGWALDVTNAIRVLAEEHGSWSAALVVAQDAEHRLPCGEAYSLGVLVPYLAVSGATAQARQLFESGLAHGALIDPVLVQQLVMQTATLRQWETCLHMLQCLYRTQETAQLLPADADFFCRLMEVSPGWVTSLQLLHMARASDVKPNERTVAILLTQCDQAGAWREAAAVYDMAVKEDFIDSLAVGSTYHTLVRSFSAIQQWQKALEALSWMSKADDASLTAGMMELVTLCEQSGQWEAALSVGSTLMDSGVHLLSTQTSMALLFLCAKGAQWEFAMRLFDAQLHDVRVDPHPLSLCAVMQACVAARQWEAALRVYDAAKASQPRMVVPPLAHRIAVKACVSAGKWNLAIAVLDATRQDGLPLDNYSQRLGLWAAAIQGQWELSLAFFQGIPRRSRTPQDRMMVRHVTRAISPAVDAIALRFLQSH”, the “soluble on expression in E. coli” value was “not soluble”.

For “MSLENVDPFDIIRQFRSVIAKTSLQASSNIEGLDTVWNSDLVLEANFWHLVEILLSFRTSQEFLDKESSISSKPYNSSIIFEKELLQKDKNLYQIWLIIVWIEGNFPFVEKPSNIPSSKWTNTLVTSGLMSSDLDYPLRDCSVVINDKDKADDHVFYKYVYELLLCGNYDQIFEECKLSDNITLNMIMCGMQEYVDPSIDVQLKDEFEVQQGVKKHSLWRRAVYSLSQNDKLDKYERAIYSYLAGDIPNDEVLQTLNWDSELLVYLNQILKIEVENYLLQNGKVNNEGHHHHHH”, the “soluble on expression in E. coli” value is “soluble”.

Turning to “SLSPRRLRLLLVDENPTARAVIGRRLSHRHYDVTVVEDGFAAQKTLIIQPSDIILIDMDLQLLPAIGTMEKIRAAHPAGHACIVMIGGASDTPKMIAALDAGADDHIVKPFDFDMLDARLRRVHARAEREG”, the “soluble on expression in E. coli” value is listed as “not soluble”.

In the case of “MAHHHHHHMKLYSLAIVKPYPSGVEKQPVICSQAIDVSSFGFFQRNSAREFIVFLTRTVSNRVAKGVKTQITENGNVVFAHATFDGLVALAISDVEYNSRVAFTLLGDLVQQFQTTFRGKYDLVDGKEDNFLSWPHLTETLEKYQKPEEQDKILKIKRDIEDTKVIMYNAIDQIIERGQKIDDLVAQSEDLGMASKTFYKQAKKTNSGCCTVM”, the “soluble on expression in E. coli” value is reported as “soluble”.

As for “GNFGWSSYLTYSLNRNKVVELLRNYEDPYTHELTSLDRIDMGGTSMYKMILTEGGSIGDIYVNTLRTDEHGAIYVHPSDQVVVTQPDEFVKAGNSAPKYNLGWGNTFSYKGLSLGFLFTARVGGVVVSQTQATMDAYGSSKATAIARDNGGAIVNGRPIGAEDYYTKIGGAGAQGGIGSMYTYSATNVRLAELSLGYDIPINKYVDWIKGLNVSFIGKNLFFLYRKAPFDPELTASTGTYFQGIDMFMSPSLRNLGFSVKVNF”, the “soluble on expression in E. coli” value is “not soluble”.

Turning to “MSKKDVTKVVLDESDIPKQWYNILADMPNKPAPYFSSKTGKPVTLDELQAIFPMELIQQENSQERWIDIPEEVREMYRQWRPSPLYRARALEKHLGTPARIYYKYEGTNATGSHKLNTSLPQAYYNKIAGIKRLSTETGAGQWGSALSLACNHFGLECTVYMVKVSYEQKPYRRSFMKTFGAQVYASPTNLTSSGRAILEKDPDCTGSLGIAISEAVEDAATHDDTNYALGSVLNHVCLHQTIIGLEAKKQLEYLDEYPDVVFACCGGGSNFAGIAFPFLMDKFKGTKVRAVAVEPTACPTLTKGVYAYDYSDTGKIGPLAKMYTVGHDFVPAGIHAGGLRYHGVSPIVSQLYEDKLIEAKAYGQSSVFEAAVIFARTEGIVPAPESSHAIRAAIDEALLCKESGEAKVILFNLSGHGYFDMAAYDNYFSGKLSDVDYSEEEIARSMKNLPKVD”, the “soluble on expression in E. coli” value is reported as “soluble”.

In the case of “MGSDKIHHHHHHMIEIIPAIDIIDGKCVRLSQGDYDSKKVYNENPVEVAKEFEANGVRRLHVVDLDGAASHHVVNHRVLEQIATRTSLIVDFGGGVKSDEDLKIAFESGAQMVTGGSVAVKDPELFCHWLEVYGSEKIILGADVKEHKIAVNGWKDESACELFPFLEDYINKGIQKVICTDISCDGMLKGPSIDLYKEMLEKFPNLYLMASGGVSNVDDIIALNEAGVPGVIFGKALYEGHITLKDLRIFL”, the “soluble on expression in E. coli” value is given as “not soluble”.

“MVESQFEQDSQISTDSPLVLVKAAEKTSAIQQLLDYISNYQMISSNSIPIKSMDKIMMLKLDDIILVDVNQTTLKIYTLTGVFTTTETLVHFANRLNKSNFIQISKHALINLDHLESLSDSFSGNMMAKLSSNIKSSVSRKYVKGLMTQLGI”: the “soluble on expression in E. coli” value was “not soluble”.

Regarding “GPGSMYVLYCCTMQGYSQLSGSSSDENIVHPLSSDGNTVTISPTYTLRMHFLPQHQVAKGAEKNNQIELSVAPTDALIINFPEGTEGSETEVMEQLIGTGRWQWVVPMRPFDGYDSTRSYRLKARRFPVAAGDDSNELTPPTIVHVPNISSIIEAGMRVSNRSQSGLHRSRGGVVCFVVGADPSVVRVPEGKKLLEQLFSEVGRSTISTATLGLRQLHNANWALFISPCRTNKLFAWKERLPSSSVSSGSLWWLCAAADVLLEINTAAEWVTAHFD”, the “soluble on expression in E. coli” value is recorded as “not soluble”.

Take “MPVFRRHASQNCASIPPMMLFKRPDTETLYFALVNKDPAYEGVAYVCVTSTKIFCRFTCTARKPKIENCRFRETITECLEAGFRPCKRCKPMLSYGTPDGTVTALLTALENEPARRWREEDVVALGHDPSTVRRSFKRRFGMSFLEIARLRRVGDAAESLASGEAVIGAQIDAGYESGSGFRSAINQLFGTSPAAMKGRGFLKGDWIDTPIGPMLAVADDHALHLLEFADRPALPAELKRLKARTGADMVLGRTAVTGQIAAELAAYFAGRSGSFETRLAGHGTPFERDVWRNLREIPAGEIVSYSSLATAMERPTAVRAVARANGANQLAIVVPCHRVLGADGSLTGYGGGLWRKKWLIEHERRMARGQMLGMPLASLEHHHHHH”: the “soluble on expression in E. coli” value is on record as “not soluble”.

For the sequence “MGSDKIHHHHHHCNNSNTKDNDKLFIGNGKFCQAKRLNGLGAIYDDDYIFFDCENQIYESYNYSNKKNDKKLNVNCRNSACSHNNDKCEAYVELGEYFVFNSKIYKYYNKSKVVSGENRLYGSIVEEESGKTVFKNSIPTDMSSELAIDDSEAILYVRVLSDDIIKVDGDRHAYLLDKNFNIIYCHYNIGKFPWGAILNGNYYYINDINEIVKVNLTTFESKSIASNGKAFMADNDENFIYYSNEFSELYKLSPDDESSIKIADNALFFSVQNKYIYASGGDNGNKIIYDKNGKIIADYSACVNMGADSAFQINDKIYTIFNGGVAYMDLDGKNYGEMMQ”, the “soluble on expression in E. coli” value was “not soluble”.

As to “PMGDGTQVVFTTSLIPTEAIVQLDTKAPANSKQSPIFFISPIEGFASALEPLAKRLEVPAYGLQYTEAVPSDSLESAAKFFIKQLRTVQPKGPYKLAGYSFGCLLTYVMAGILEETNEVANVIMLDGAPSYVNWYTSSFKQRYTDGTNADNDNQSYGLAYFGIVLANIDYKALVRLLIVIPTWEEKLERFAELMSNEITQPVETIKKSATLFYKKLELADGYQPTLKLKTNVTLVKPTDNSAKLDEDYRLKEVCTKPVEVHTVEGNHRTFLIEDQSLKTIQSILKRL”, the “soluble on expression in E. coli” value is “soluble”.

On to “MTDDRVEQVLEAARRLVAAFARNDAEAYFAAFSEDASFIFHNWPQPLRSRAAYRKLWERWRREDGFEVLACESSNTCVSLQGDLAIFSHDVATRLRLQGTESLNRERETILFRLEQQEGRWLACHEHLSAMPEYLPSTS”, for which the “soluble on expression in E. coli” value is recorded as “not soluble”.

For “MAPLVAVVSSPRARLFACFLRLGTQQAGPLQLHTGACCTAKNHYEVLVLGGGAGGITMATRMKRRVGAENVAIVEPSERHFYQPIWTLVGAGAKELSLSVRSTLSVIPSGVQWIQDRVAELNPDENCIRTDSGKEISYRYLIIALGIQLDYEKIKGLPEGFAYPKIGSNYSVKTVEKTWKALQDFKEGNALFTFPNTPVKCAGAPQKIMYLSEAYFRKTGKRPKANIIFNTALGTIFGVKKYADALQEIIRERDVSVNYKHNLIEVRPDKQEAVFEILDKPGETHVIPYEMLHVTPPMSAPDVLKRSPVADSAGWVDVDKETLQHKKYPNVFGIGDCTNLPTSKTAAAVAAQSGILDRTMCLIMKNQRPIKKYDGYTSCPLVTGYNRVILAEFDYTAQPLETFPFDQSKERITMYLMKADMMPFLYWNMMLRGYWGGPAFLRKLFHLGMN”, the “soluble on expression in E. coli” value is on record as “not soluble”.

For the sequence “MSLEQKWKWWEEERYPEGIKWKFLEHKGPVFAPPYEPLPENVKFYYDGKVMKLSPKAEEVATFFAKMLDHEYTTKEIFRKNFFKDWRKEMTNEEKNIITNLSKCDFTQMSQYFKAQTEARKQMSKEEKLKIKEENEKLLKEYGEGHHHHHH”, the “soluble on expression in E. coli” value was “soluble”.

As to “MGSDKIHHHHHHMTITPHTLAVWADDQRAGLLDRSIDQHQYVFAYDPAAESPSAQVSLTMPVRLESWASRDLHPIFQMNLPEGALLEAIRRTVSKLIGEDDLTILRVTGGNQVGRNRFSLAADPAPGIVETKESLDELLSYPDTEELFNDLVAKYALRSGVSGVQPKVMLDATERGTAAVGGYIVKSWGSEYPQLAANEFFCMTAAKRAGLSVPEFHLSENGGLFVMKRFDLGERGEPLGFEDICSLQALATTRKYSSTYERVARTIKDFVSPAALLVAREQFFASLVLSCMVRNGDAHLKNFGVLYDRPGQLVQLAPVYDVVTTTAYIPKDVPALSLFGTKKWWSRRALERFAVSHLSLPVGRVGQILEKVAEAVTDTRGIVSAYMVEHPEYREVGNLQLASWEVGVANLVLI”, the “soluble on expression in E. coli” value is “not soluble”.
